Changes are numbered by the printed parent chain.
Assays:
NF-κB p50 (rhNF-κB) [1] = target: T1, NF-κB p50 (rhNF-κB) (Homo sapiens, UniProt P19838 P19838:1-433); assay: SPR; PBS, 0.05% Nonidet P-40, 2.5 mM DTT, 25 C; immobilized by hybridization to biotinylated probe; settings: tags: Promega; chain copies: 2 (inferred); hairpin stem with non-Watson-Crick G-A and G-T pairs
Experimental: (§1) The binding ability of each NF-κB p50-binding DNA aptamer clone for NF-κB p50 was determined by the surface plasmon resonance (SPR) method using BIACORE 3000 (GE Healthcare Japan Corp.). The assay in the SPR method was conducted with a temperature set to 25° C. using buffer A as a running buffer. Specifically, DNA probes (21 mer) (SEQ ID NO: 30) each having a nucleotide sequence complementary to the 3′-terminal region of each clone and having a biotinylated base at the 5′ end were immobilized onto a streptavidin-coated sensor chip (SA chip). Then, 60 μL (corresponding to 12 minutes) of a solution of each single-stranded DNA clone (95 mer) diluted to 50 nM with PBS was injected thereto at a flow rate of 5 μL/min to immobilize the clone onto the SA chip through hybridization with the probe.

NF-κB p50 (rhNF-κB) [2] = target: T1, NF-κB p50 (rhNF-κB); assay: SPR; PBS, 0.05% Nonidet P-40, 2.5 mM DTT, 25 C; Example 3 text gives range 5.7 to 8.7; settings: tags: Promega; chain copies: 2 (inferred); hairpin stem with two G-T and three G-A pairs
Experimental: as §1
(§2) Single-stranded DNA variants (68 mer, SEQ ID NOs: 31, 32, and 33; free from a sequence comprising the 5′-terminal primer sequence region) of each NF-κB p50-binding DNA aptamer clone were analyzed for their binding ability by the same SPR method as in Example 2. […] These single-stranded DNA variants used in binding analysis were prepared by chemical synthesis and gel purification. In the diagram, Cont-68 (SEQ ID NO: 34) corresponds to a single-stranded DNA in which the strands of a double-stranded DNA comprising a known NF-κB p50-binding consensus sequence were linked via adenine tetraloop (AAAA). […]

NF-κB p50 (rhNF-κB) [3] = target: T1, NF-κB p50 (rhNF-κB); assay: SPR; PBS, 0.05% Nonidet P-40, 2.5 mM DTT, 25 C; dissociation rate 10 times larger than 5R01-68; settings: tags: Promega; chain copies: 2 (inferred); hairpin
NF-κB p50 (rhNF-κB) [4] = target: T1, NF-κB p50 (rhNF-κB); assay: SPR; PBS, 0.05% Nonidet P-40, 2.5 mM DTT, 25 C; Example 2 text gives range 2.1 to 3.5 pM; settings: tags: Promega; chain copies: 2 (inferred); hairpin stem with non-Watson-Crick pairs; 95 mer
Experimental: as §1

NF-κB p50 (rhNF-κB) [5] = target: T1, NF-κB p50 (rhNF-κB); assay: SPR; PBS, 0.05% Nonidet P-40, 2.5 mM DTT, 25 C; settings: tags: Promega, chain copies: 2 (inferred)
Experimental: as §1
Single-stranded DNA variants (68 mer, SEQ ID NOs: 31, 32, and 33; free from a sequence comprising the 5′-terminal primer sequence region) of each NF-κB p50-binding DNA aptamer clone were analyzed for their binding ability by the same SPR method as in Example 2. […] These single-stranded DNA variants used in binding analysis were prepared by chemical synthesis and gel purification. In the diagram, Cont-68 (SEQ ID NO: 34) corresponds to a single-stranded DNA in which the strands of a double-stranded DNA comprising a known NF-κB p50-binding consensus sequence were linked via adenine tetraloop (AAAA). For SPR analysis, each of these single-stranded DNAs was immobilized onto the SA chip through hybridization with probes by the injection of 20 μL (corresponding to 1 minute) of a solution of each DNA fragment (68 mer) diluted to 250 nM with PBS at a flow rate of 20 μL/min.

NF-κB p50 (rhNF-κB) [6] = target: T1, NF-κB p50 (rhNF-κB); assay: SPR; PBS, 0.05% Nonidet P-40, 2.5 mM DTT, 25 C; natural consensus hairpin control; settings: tags: Promega, chain copies: 2 (inferred), known NF-κB consensus duplex strands linked via AAAA tetraloop
Experimental: as §1, §2

T1 sequence (P19838 1-433, one chain of several): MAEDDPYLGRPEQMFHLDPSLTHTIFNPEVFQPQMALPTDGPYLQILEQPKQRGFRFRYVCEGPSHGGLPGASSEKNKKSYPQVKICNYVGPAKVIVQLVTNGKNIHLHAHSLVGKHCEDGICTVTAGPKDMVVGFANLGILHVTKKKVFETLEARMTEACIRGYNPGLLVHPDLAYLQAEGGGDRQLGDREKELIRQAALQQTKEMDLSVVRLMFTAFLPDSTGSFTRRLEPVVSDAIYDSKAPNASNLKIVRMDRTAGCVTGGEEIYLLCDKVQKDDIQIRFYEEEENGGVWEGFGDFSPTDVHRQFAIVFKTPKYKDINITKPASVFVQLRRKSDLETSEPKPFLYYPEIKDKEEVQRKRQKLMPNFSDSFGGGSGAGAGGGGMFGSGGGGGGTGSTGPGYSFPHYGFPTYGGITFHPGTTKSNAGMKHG

B1: 5R01 (ssDNA)
DNA: GTAGTCACTAATCCGTTCGAGTCATGCCGGGGAATCACTGTAGGGACATTACGCAGGGGATTCACTAGGAGTGGACTGATACGATCGATTGACAG
Work on B1 yielded a Kd (NF-κB p50 (rhNF-κB) [1]) of 3.5 pM.

B2: 5R01-68 (ssDNA)
DNA: CGGGGAATCACTGTAGGGACATTACGCAGGGGATTCACTAGGAGTGGACTGATACGATCGATTGACAG
B2 was tested, and the Kd (NF-κB p50 (rhNF-κB) [2]) was 5.4 pM.

B3: 5R01mut-68 (ssDNA)
DNA: B2 DNA with A10C, T12C, A28C, A37C, T39C
B3 showed a Kd (NF-κB p50 (rhNF-κB) [3]) of 140 pM.

B4: 5R14 (ssDNA)
DNA: GTAGTCACTAATCCGTTCGAGTCATGCCACGGGGTTTCACTGTTTCGTAGATTGCATAAGGGGAAACACTGTGGACTGATACGATCGATTGACAG
B4 was tested, and the Kd (NF-κB p50 (rhNF-κB) [4]) was 6.6 pM.

B5: 5R14-68 (ssDNA)
DNA: CACGGGGTTTCACTGTTTCGTAGATTGCATAAGGGGAAACACTGTGGACTGATACGATCGATTGACAG
Work on B5 yielded a Kd (NF-κB p50 (rhNF-κB) [5]; hairpin) of 8.7 pM.

B6: 5R05 (ssDNA)
DNA: GTAGTCACTAATCCGTTCGAGTCATGCTGTAACGTAGGGGTTTCACCAACACTGCGGGAAACACTGAAGCGTGGACTGATACGATCGATTGACAG
B6 gave a Kd (NF-κB p50 (rhNF-κB) [5]; hairpin stem with non-Watson-Crick pairs, 95 mer) of 2.1 pM.

B7: 5R05-68 (ssDNA)
DNA: TGTAACGTAGGGGTTTCACCAACACTGCGGGAAACACTGAAGCGTGGACTGATACGATCGATTGACAG
B7 was tested, and the Kd (NF-κB p50 (rhNF-κB) [5]; hairpin) was 7.2 pM.

B8: Cont-68 (ssDNA)
DNA: CCTTGAAGGGATTTCCCTCCAAAAGGAGGGAAATCCCTTCAAGGTGGACTGATACGATCGATTGACAG
B8 was tested, and the Kd (NF-κB p50 (rhNF-κB) [6]) was 3500 pM.
